Biological target: the molecule itself
Test: cryo-EM structure; 15-20uM recombinant Pil1 with ~2mg/mL LUVs of three lipid mixtures (-PI(4,5)P2/+sterol, +PI(4,5)P2/-sterol, +PI(4,5)P2/+sterol), 30°C for 1hr, 20 mM HEPES pH 7.4, 150 mM KoAc, 2 mM MgAc; helical reconstruction

B1: Recombinant Pil1 (natural protein, S. cerevisiae, UniProt P53252 1-339, looked up)
chain: MHRTYSLRNSRAPTASQLQNPPPPPSTTKGRFFGKGGLAYSFRRSAAGAFGPELSRKLSQLVKIEKNVLRSMELTANERRDAAKQLSIWGLENDDDVSDITDKLGVLIYEVSELDDQFIDRYDQYRLTLKSIRDIEGSVQPSRDRKDKITDKIAYLKYKDPQSPKIEVLEQELVRAEAESLVAEAQLSNITRSKLRAAFNYQFDSIIEHSEKIALIAGYGKALLELLDDSPVTPGETRPAYDGYEASKQIIIDAESALNEWTLDSAQVKPTLSFKQDYEDFEPEEGEEEEEEDGQGRWSEDEQEDGQIEEPEQEEEGAVEEHEQVGHQQSESLPQQTTA
notes: Pil1 of S. cerevisiae, PIL1 cloned into pCoofy6; the printed primers run from the ATG to the stop codon; The N-terminal position of Sumo3 is read from the primer LP1-Sumo3-Pil1-fwd; also called reconstituted Pil1; source: E. coli BL21(DE3)pLysS, purified (HisTrap, HiTrap Q, Sumo3 cleaved with SenP2, Superdex 200); not shown: Sumo3, N-terminal, cleaved
binding result: binds
